Square brackets hold non-standard residues; d marks the D form. Nle = CCCC[C@H](N)C(=O)O; Mamp = not defined here; Nva = CCC[C@H](N)C(=O)O
B1: peptide of SEQ ID NO: 70 (peptide)
peptide: Ac-YDREFLLDFQF[Nle]-NH2
SMILES: CCCC[C@H](NC(=O)[C@H](Cc1ccccc1)NC(=O)[C@H](CCC(N)=O)NC(=O)[C@H](Cc1ccccc1)NC(=O)[C@H](CC(=O)O)NC(=O)[C@H](CC(C)C)NC(=O)[C@H](CC(C)C)NC(=O)[C@H](Cc1ccccc1)NC(=O)[C@H](CCC(=O)O)NC(=O)[C@H](CCCNC(=N)N)NC(=O)[C@H](CC(=O)O)NC(=O)[C@H](Cc1ccc(O)cc1)NC(C)=O)C(N)=O
B2: peptide of SEQ ID NO: 74 (peptide)
peptide: Ac-YNREFLLDFQF[Nle]-NH2
SMILES: CCCC[C@H](NC(=O)[C@H](Cc1ccccc1)NC(=O)[C@H](CCC(N)=O)NC(=O)[C@H](Cc1ccccc1)NC(=O)[C@H](CC(=O)O)NC(=O)[C@H](CC(C)C)NC(=O)[C@H](CC(C)C)NC(=O)[C@H](Cc1ccccc1)NC(=O)[C@H](CCC(=O)O)NC(=O)[C@H](CCCNC(=N)N)NC(=O)[C@H](CC(N)=O)NC(=O)[C@H](Cc1ccc(O)cc1)NC(C)=O)C(N)=O
B3: peptide of SEQ ID NO: 78 (peptide)
peptide: Ac-Y[Nva]LLAFQF[Nle]-NH2
SMILES: CCCC[C@H](NC(=O)[C@H](Cc1ccccc1)NC(=O)[C@H](CCC(N)=O)NC(=O)[C@H](Cc1ccccc1)NC(=O)[C@H](C)NC(=O)[C@H](CC(C)C)NC(=O)[C@H](CC(C)C)NC(=O)[C@H](CCC)NC(=O)[C@H](Cc1ccc(O)cc1)NC(C)=O)C(N)=O
B4: peptide of SEQ ID NO: 85 (peptide)
peptide: Ac-KRKRFDREFLLAFQF[Nle]-NH2
SMILES: CCCC[C@H](NC(=O)[C@H](Cc1ccccc1)NC(=O)[C@H](CCC(N)=O)NC(=O)[C@H](Cc1ccccc1)NC(=O)[C@H](C)NC(=O)[C@H](CC(C)C)NC(=O)[C@H](CC(C)C)NC(=O)[C@H](Cc1ccccc1)NC(=O)[C@H](CCC(=O)O)NC(=O)[C@H](CCCNC(=N)N)NC(=O)[C@H](CC(=O)O)NC(=O)[C@H](Cc1ccccc1)NC(=O)[C@H](CCCNC(=N)N)NC(=O)[C@H](CCCCN)NC(=O)[C@H](CCCNC(=N)N)NC(=O)[C@H](CCCCN)NC(C)=O)C(N)=O
B5: peptide of SEQ ID NO: 80 (peptide)
peptide: Ac-KRYDREFLLAFQF[Nle]-NH2
SMILES: CCCC[C@H](NC(=O)[C@H](Cc1ccccc1)NC(=O)[C@H](CCC(N)=O)NC(=O)[C@H](Cc1ccccc1)NC(=O)[C@H](C)NC(=O)[C@H](CC(C)C)NC(=O)[C@H](CC(C)C)NC(=O)[C@H](Cc1ccccc1)NC(=O)[C@H](CCC(=O)O)NC(=O)[C@H](CCCNC(=N)N)NC(=O)[C@H](CC(=O)O)NC(=O)[C@H](Cc1ccc(O)cc1)NC(=O)[C@H](CCCNC(=N)N)NC(=O)[C@H](CCCCN)NC(C)=O)C(N)=O
B6: peptide of SEQ ID NO: 84 (peptide)
peptide: Ac-KRFDREFLLAFQF[Nle]-NH2
SMILES: CCCC[C@H](NC(=O)[C@H](Cc1ccccc1)NC(=O)[C@H](CCC(N)=O)NC(=O)[C@H](Cc1ccccc1)NC(=O)[C@H](C)NC(=O)[C@H](CC(C)C)NC(=O)[C@H](CC(C)C)NC(=O)[C@H](Cc1ccccc1)NC(=O)[C@H](CCC(=O)O)NC(=O)[C@H](CCCNC(=N)N)NC(=O)[C@H](CC(=O)O)NC(=O)[C@H](Cc1ccccc1)NC(=O)[C@H](CCCNC(=N)N)NC(=O)[C@H](CCCCN)NC(C)=O)C(N)=O
B7: peptide of SEQ ID NO: 7 (peptide)
peptide: Ac-KRYDREFLLAFQF[Nle]VYDLGLRRLRQRRRLRR-NH2
SMILES: CCCC[C@H](NC(=O)[C@H](Cc1ccccc1)NC(=O)[C@H](CCC(N)=O)NC(=O)[C@H](Cc1ccccc1)NC(=O)[C@H](C)NC(=O)[C@H](CC(C)C)NC(=O)[C@H](CC(C)C)NC(=O)[C@H](Cc1ccccc1)NC(=O)[C@H](CCC(=O)O)NC(=O)[C@H](CCCNC(=N)N)NC(=O)[C@H](CC(=O)O)NC(=O)[C@H](Cc1ccc(O)cc1)NC(=O)[C@H](CCCNC(=N)N)NC(=O)[C@H](CCCCN)NC(C)=O)C(=O)N[C@H](C(=O)N[C@@H](Cc1ccc(O)cc1)C(=O)N[C@@H](CC(=O)O)C(=O)N[C@@H](CC(C)C)C(=O)NCC(=O)N[C@@H](CC(C)C)C(=O)N[C@@H](CCCNC(=N)N)C(=O)N[C@@H](CCCNC(=N)N)C(=O)N[C@@H](CC(C)C)C(=O)N[C@@H](CCCNC(=N)N)C(=O)N[C@@H](CCC(N)=O)C(=O)N[C@@H](CCCNC(=N)N)C(=O)N[C@@H](CCCNC(=N)N)C(=O)N[C@@H](CCCNC(=N)N)C(=O)N[C@@H](CC(C)C)C(=O)N[C@@H](CCCNC(=N)N)C(=O)N[C@@H](CCCNC(=N)N)C(N)=O)C(C)C
B8: peptide of SEQ ID NO: 22 (peptide)
peptide: Ac-KRYDREFLLAFQF[Nle]RRLRQRRRLRRERVRA-NH2
SMILES: CCCC[C@H](NC(=O)[C@H](Cc1ccccc1)NC(=O)[C@H](CCC(N)=O)NC(=O)[C@H](Cc1ccccc1)NC(=O)[C@H](C)NC(=O)[C@H](CC(C)C)NC(=O)[C@H](CC(C)C)NC(=O)[C@H](Cc1ccccc1)NC(=O)[C@H](CCC(=O)O)NC(=O)[C@H](CCCNC(=N)N)NC(=O)[C@H](CC(=O)O)NC(=O)[C@H](Cc1ccc(O)cc1)NC(=O)[C@H](CCCNC(=N)N)NC(=O)[C@H](CCCCN)NC(C)=O)C(=O)N[C@@H](CCCNC(=N)N)C(=O)N[C@@H](CCCNC(=N)N)C(=O)N[C@@H](CC(C)C)C(=O)N[C@@H](CCCNC(=N)N)C(=O)N[C@@H](CCC(N)=O)C(=O)N[C@@H](CCCNC(=N)N)C(=O)N[C@@H](CCCNC(=N)N)C(=O)N[C@@H](CCCNC(=N)N)C(=O)N[C@@H](CC(C)C)C(=O)N[C@@H](CCCNC(=N)N)C(=O)N[C@@H](CCCNC(=N)N)C(=O)N[C@@H](CCC(=O)O)C(=O)N[C@@H](CCCNC(=N)N)C(=O)N[C@H](C(=O)N[C@@H](CCCNC(=N)N)C(=O)N[C@@H](C)C(N)=O)C(C)C

What follows are binders tested against T1, Human eIF4E (aa 28-217) with a C-terminal His tag (human, UniProt P06730 28-217) (assay: TR-FRET competition vs biotin-4G2 peptide on HH-eIF4E).
T1 construct: also called HH-eIF4E; eukaryotic initiation factor 4E
T1 sequence (P06730 other isoform, or with tags, fused parts or gaps limits assumed): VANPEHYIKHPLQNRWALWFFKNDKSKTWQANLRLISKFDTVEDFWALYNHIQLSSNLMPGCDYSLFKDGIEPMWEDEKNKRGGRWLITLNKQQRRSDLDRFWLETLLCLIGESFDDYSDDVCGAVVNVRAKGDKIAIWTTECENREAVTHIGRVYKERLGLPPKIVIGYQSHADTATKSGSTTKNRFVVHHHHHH
Protocol: (§1) Test peptides (1.6 mM stock in DMSO) were diluted 3 fold in series in DMSO and solutions were diluted 4 fold in Assay Buffer (50 mM NaPi, pH 6.5, 50 mM KCl, 1 mM DTT, 0.004% NP40 and 0.5 mg/ml gammaglobulin). […] The samples were incubated at room temperature for 20 minutes.
(§2) IC50 values were calculated using Condoseo software (Genedata AG, Basel, Switzerland).

Row | Binder | IC50 [µM]
1 | B1 | 3.39
2 | YNRQFLLDFQFL (N-terminal Ac; Nle at 12; C-terminal NH2) [peptide of SEQ ID NO: 75] | 11
3 | B2 | 10.9
4 | Ac-YDREFLLDFQFM-NH2 [peptide of SEQ ID NO: 68] | 13.1
5 | YDRQFLLDFQFL (N-terminal Ac; Nle at 12; C-terminal NH2) [peptide of SEQ ID NO: 71] | 11
6 | Ac-KQYDREFLLDFQFMPA-NH2 [peptide of SEQ ID NO: 52] | 10.5
7 | Ac-KAYDREFLLDFQFMPA-NH2 [peptide of SEQ ID NO: 62] | 13.6
8 | Ac-KQYAREFLLDFQFMPA-NH2 [peptide of SEQ ID NO: 61] | 11.8
9 | Ac-AQYDREFLLDFQFMPA-NH2 [peptide of SEQ ID NO: 63] | 12.3
10 | Ac-KQYDREFLLDFQFMAA-NH2 [peptide of SEQ ID NO: 57] | 6.96
11 | Ac-KQYDRAFLLDFQFMPA-NH2 [peptide of SEQ ID NO: 60] | 9.26
12 | Ac-KQYDREFLLAFQFMPA-NH2 [peptide of SEQ ID NO: 59] | 1.42
13 | Ac-KQYDREFLLDFQFAPA-NH2 [peptide of SEQ ID NO: 58] | 11.3
14 | Ac-KQYDREFLLDFQF-NH2 [peptide of SEQ ID NO: 55] | 14.6
15 | Ac-KQYDREFLLDFQF[dM]PA-NH2 [peptide of SEQ ID NO: 66] | 7.75
16 | B3 | 6.63

Row | Binder | IC50 [µM]
17 | Ac-KQYDREFLLDFQFMP[dA]-NH2 [peptide of SEQ ID NO: 64] | 8.69
18 | Ac-YDREFLLDFQF-NH2 [peptide of SEQ ID NO: 69] | 12.4
19 | B4 | 0.32
20 | Ac-KQYDREFLLDFQFM[dP]A-NH2 [peptide of SEQ ID NO: 65] | 7.69
21 | Ac-KQYDREFLLDFQ[dF]MPA-NH2 [peptide of SEQ ID NO: 67] | 13.7
22 | Ac-KQYDREFLLDF-NH2 [peptide of SEQ ID NO: 56] | 3.44
23 | Ac-YDREFLLDFQFMPA-NH2 [peptide of SEQ ID NO: 82] | 7.52
24 | Ac-Y[Mamp]LLAFQF[Nle]-NH2 (reading uncertain) [peptide of SEQ ID NO: 77] | 5.35
25 | Ac-KQYDREFLLDFQFM-NH2 [peptide of SEQ ID NO: 54] | 8.84
26 | Ac-QYDREFLLDFQFMPA-NH2 [peptide of SEQ ID NO: 81] | 8.68
27 | Ac-Y[Mamb]LLAFQF[Nle]-NH2 [peptide of SEQ ID NO: 76] | 12
28 | Ac-F[5Ava]LLAFQF[Nle]-NH2 [peptide of SEQ ID NO: 79] | 9.34
29 | Ac-KQYDREFLLDFQFMP-NH2 [peptide of SEQ ID NO: 53] | 7.46
30 | B5 | 0.643
31 | B6 | 4.07
32 | Ac-[dK]QYDREFLLDFQFMPA-NH2 [peptide of SEQ ID NO: 83] | 1.67

Target: T1, Human eIF4E (aa 28-217) with a …
Test: as above
Remark: another data set of the same source
Protocol: as §1, §2

Row | Binder | IC50 [µM]
33 | B7 | 0.21
34 | B8 | 0.198
